From patent US20050002904A1, “Uses of vascular endothelial growth factor and type I collagen inducible protein (VCIP)” (priority 2003, published 2005)

System: VCIP
Assay: VCIP mRNA induction by growth factors and cytokines in monolayer cells
Type: cell-based, human
Details: 6 h, northern blot
Protocol: FIGS. 1A-M show expression analysis and predicted amino acid sequence of VEGF and type I collagen inducible protein (VCIP). FIG. 1A: HUVECs were embedded into three-dimensional type I collagen gel in the presence of 20% adult human serum, 1× ITS and stimulated with VEGF^165 (100 ng/ml). Total RNA was prepared at the indicated time points. Northern blots were hybridized with a fragment of the VCIP (clone-33A) cDNA probe. The transcript size (3.4 kb) is indicated on the right. The numbers at the bottom of the gel represent the fold increase in VCIP mRNA levels, as compared with untreated cells. […] Total RNA was isolated at indicated time points and subjected to VCIP northern blot analysis. […] FIG. 1E: Poly(A)^+ RNA prepared from various human tissues was subjected to VCIP northern blot analysis by hybridization with the clone-33A cDNA probe. FIG. 1F: The blot shown in FIG. 1E was re-hybridized with a GAPDH probe, showing that equal amounts of RNA were loaded across the lanes. FIG. 1G: Detection of VCIP mRNA by RT-PCR (20 cycles): monolayer endothelial cells were treated for 30 min with: (1) untreated, (2) bFGF (20 ng/ml), (3) VEGF^165 (100 ng/ml), (4) PMA (20 ng/ml), (5) bFGF (20 ng/ml)+VEGF (100 ng/ml), (6) bFGF (20 ng/ml)+PMA (20 ng/ml), (7) VEGF (100 ng/ml)+PMA (20 ng/ml) and (8) bFGF (20 ng/ml)+VEGF (100 ng/ml)+PMA (20 ng/ml). […]

B1: EGF: growth factor (protein, UniProt P01133 23-1207, looked up)
Pro-epidermal growth factor: PQHWSCPEGTLAGNGNSTCVGPAPFLIFSHGNSIFRIDTEGTNYEQLVVDAGVSVIMDFHYNEKRIYWVDLERQLLQRVFLNGSRQERVCNIEKNVSGMAINWINEEVIWSNQQEGIITVTDMKGNNSHILLSALKYPANVAVDPVERFIFWSSEVAGSLYRADLDGVGVKALLETSEKITAVSLDVLDKRLFWIQYNREGSNSLICSCDYDGGSVHISKHPTQHNLFAMSLFGDRIFYSTWKMKTIWIANKHTGKDMVRINLHSSFVPLGELKVVHPLAQPKAEDDTWEPEQKLCKLRKGNCSSTVCGQDLQSHLCMCAEGYALSRDRKYCEDVNECAFWNHGCTLGCKNTPGSYYCTCPVGFVLLPDGKRCHQLVSCPRNVSECSHDCVLTSEGPLCFCPEGSVLERDGKTCSGCSSPDNGGCSQLCVPLSPVSWECDCFPGYDLQLDEKSCAASGPQPFLLFANSQDIRHMHFDGTDYGTLLSQQMGMVYALDHDPVENKIYFAHTALKWIERANMDGSQRERLIEEGVDVPEGLAVDWIGRRFYWTDRGKSLIGRSDLNGKRSKIITKENISQPRGIAVHPMAKRLFWTDTGINPRIESSSLQGLGRLVIASSDLIWPSGITIDFLTDKLYWCDAKQSVIEMANLDGSKRRRLTQNDVGHPFAVAVFEDYVWFSDWAMPSVMRVNKRTGKDRVRLQGSMLKPSSLVVVHPLAKPGADPCLYQNGGCEHICKKRLGTAWCSCREGFMKASDGKTCLALDGHQLLAGGEVDLKNQVTPLDILSKTRVSEDNITESQHMLVAEIMVSDQDDCAPVGCSMYARCISEGEDATCQCLKGFAGDGKLCSDIDECEMGVPVCPPASSKCINTEGGYVCRCSEGYQGDGIHCLDIDECQLGEHSCGENASCTNTEGGYTCMCAGRLSEPGLICPDSTPPPHLREDDHHYSVRNSDSECPLSHDGYCLHDGVCMYIEALDKYACNCVVGYIGERCQYRDLKWWELRHAGHGQQQKVIVVAVCVVVLVMLLLLSLWGAHYYRTQKLLSKNPKNPYEESSRDVRSRRPADTEDGMSSCPQPWFVVIKEHQDLKNGGQPVAGEDGQAADGSMQPTSWRQEPQLCGMGTEQGCWIPVSSDKGSCPQVMERSFHMPSYGTQTLEGGVEKPHSLLSANPLWQQRALDPPHQMELTQ
modifications: Pro-epidermal growth factor
induction of VCIP expression (A431 epidermoid carcinoma cells): strongly induced
induction of VCIP expression (HdMVECs): but not to EGF
